We go through 47 sequences from the NTF2 design screens of Basanta et al. (2020).

The series is described as follows: protease stability score; higher = more stable; yeast display proteolysis, trypsin and chymotrypsin.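 Also: relative to predicted unfolded state with 0 unfolded-like and 1 meaning tenfold more protease.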
For “DERHNKQWNKELIKIWTDGDHKKFSEMLDKDVQIQVGDKEYHGREEIVRQYKTLMDRADHFEVKRYEVKGNDITIIFTFQVNGRRDQVRVVFVIENGHVKKITMDKK”, the protease stability score came out at 1.97.

“DERHQDLREVLTRLMHLLLTGDWDEFHRLADPSTQLEVGDFHFHGWEMVVEFLKRFYFHIRLRRFHIEHVRVINGRIDSDTRVESEVNGVRDVERTHVHLNKVDGRWVIKRMHME” had a protease stability score of 0.966.

“DERHRYMKLFLDIFLHLYQTGDWDKLEHLADPHVKLIFENHELHGRDSFFRFILEWLRHMGVNHVEFHNIHYDLVGDKVHLEVRLIVFINGRIHHVIIHIIAEKIDGKWHLRSHEIRHE”: the protease stability score is 1.34.

“DERKEDLDRALEEFLRSVETGDEELNERLADPNVKLVIDGVKYHGMEFIVKQLDEWRIHDMRIRRIRNVGEKVYVDLSVDGNFNGRRYRTEVKIVFTKINGRWLLETHIVD”: the protease stability score worked out at 1.87.

On to “DERKEHSIKVAKNIFNDILTGDEDRMKEMMDPDVKLHIGDKDVIGRENVIKFMIEEWNHIRFEDFKHKDVRVQGDKAILEGHINVEYGDKHRNVDSRYLVFVIDGRIKSIEIRLH”, for which the protease stability score turned out to be 1.39.

Sequence “DERKEMTRHFTEEWIRLWETGDFEHMHDLFDPHARIIIDGQDHHGMEHVNERWRRIKNIRLEIKDFKVYGDKIFIDLKVTVNGREEKVEIIVVVVDGKFKMIEFRFV” showed a protease stability score of 2.11.

For “DERKEYVEILVRILIELFLTGDWEHMLRLADPNMRFRIGDKETHGMEEAYKLMEELKEEIRIHEVRLTHIRVYGDFADTETRVHVEVGDKIVDYDMRLHLVVVNGQLRHITIEIE”, the protease stability score is 0.731.

The sequence “DERKHFFDIALEILKKTIKTGDEREHNENVDPRVKNDINGVELHGMETVSEFHLRLWEEMRVEEIHIRDLDIQGNKAVFHTSLRRRYNGRELEIELHYIVVKVNGRWFIQEIIIR” showed a protease stability score of 1.57.

For “DERKKATKETMRLEEEARNTGDEHELTKLVDPHVRLVIDGVNFIGWEVFLKRFNDLGADHVELRIDEIELIGDKVIVHGTLRIRVGDKETQEKVELYWLKINGRWVLEQVNHK”, the protease stability score was determined as 1.71.

“DERKKDAERMVEWIMHLWETGNFERLFRLADPHVRFILHQGDKELHFHGRELVEEAIFRLLLHIRIDDRIDRRVHIFPNRLDIHGQVHVHVGDKRHDLIIHIEVFIIDGKLKRIEIEIE” displayed a protease stability score of 1.49.

In the case of “DERKTISHMIEEIWHRIIRTGDEEAFIKYFDPHARIHVDGKEIHGREKVLEFLIEIFRHLRVEDYTVHSYNTQGDKIHIDTRMDGEVDGRREVNQTRIIATKINGQWILTEVHLS”, the protease stability score turned out to be 0.36.

“DERLEIARRVVELSIRMLHTGNEEVVRHLLDPNYRLHINGVHLIGMEEFSKWLKELRFDLEHVQMHHITDINGRLFVIGEIIGRLHYDGVTVREERESIWFIEKVDGKWIIKEVELR” showed a protease stability score of 1.18.

“DERMEVIEELLKKISHALYTGNEKLLEQMADPNVRLEIGDKEFVGWEQLLELIREIRLSITDIDIRDERLIGNKIHLRGESRTIHVIGDKTWEERRDVHFVILKIDGKWVMHEIEYR” returned a protease stability score of 1.95.

“DERNDRAREYVELWEDALRTGDEHILMELADPHTRIEIGEFEIIGREEIMRFMNEIRVHVRESRIKRVTEIDGVLFADIHVRREFRFDGRSKEVRTDVIIIFNKFDGKWLLESVHVK” gave a protease stability score of -0.01.

As to “DERQEEARKMFEDVYKAVWTGDEEELLRLMDPNVRIDIDGKILHGREALSEEWKRVDHVHHEHHEDMKVIGNKLHVRGHIEVDIDGRNLRYTIDNYLVVVNGRIKEVKEREV”, the protease stability score turned out to be 0.664.

Regarding “DERQHEARKVFLEWIRREVTGDFERVRHLADPNMRMDINGVEHHGRDRMSELIFRQLEEMRIEIHIRHYHVIGEKVHANIEMRVRQGDWDETRTIEIIFVVIDGRLHDYTVHIL”, the protease stability score worked out at 0.643.

“DERQHHAENFHELFFRWVETGDWENQRELADPNMRVDLVVNGVELHDHGMDSFTKRLHELRLHHLDIRSVHYVNGRIDSDIRVDGVIDGRRIDTHMRLHLRVINGKMREIRIQID” returned a protease stability score of 1.33.

In turn, “DERQKELQEFAERLMRVLNTGDWEHTEQLLDPHVRVHFNGRDFHGWEEIVRFWTELRNQFDHFELRVDTVRIQGDKVENDGNAIFRIDGKELRHRITIHVFLINGKIKRVNVEIR” returned a protease stability score of 1.68.

As to “DERREIMEEWARDVIEWLETGDFEAIERNLDPNVRHDFNGKEFHGREQVIKSFHDILKRIKNIRIETRHIEVVDGVTHWDGDVNVNGVRTHVDINIEVINGVFHDFYIKFK”, the protease stability score was 1.19.

Take “DERREQTRHWINMFTHAMRTGDEHTFKELLDPHVRVKDEHEEDHGRDKAVELFSRVDVFHDIKLRDIDVQGNYVTIEVELLGEIDGKRTTHDLHIITYKINGRWILKSVSIR”: the protease stability score was found to be 1.06.

“DERRKLEEDILELMLRVFETGDFDTFIKFADPNTRSDVNGRQYHGREWLAEMWKITLEELGADHFELTSYDVFNGRVHLRIRVHVGDKQRSMTIEIQVINGKVQSIRIDIE” registered a protease stability score of 1.4.

As for “DERSEEVRRLIKNLVDFFHTGDWRLIQDLADPNVRTDVNGVEHHGREEVTKMLEELVRRFRNVRLHIRDHHIQGEWVIVILEFHVGDKSFELHMFALKINGRWTLTSIEVR”, the protease stability score is 2.37.

“DERSHVLEEVLKKTSRANETGNEEIIEENLDPNTRFDWNGVIIHGREQWLELVKHMRISIHHFDTRDIREFNGRADVRGDMDSVIEVDGRRLRLDTHVIYHATKVDGRWVITEIRIH” yielded a protease stability score of 0.41.

In turn, “DERSRNLEHYAKDLVEDWLTGDFRRYSKLADPNALTIFNGVELHGRELVIRMMNELRHRIDHLEIRIEDSHIQGNKVKIDSHRIMNVNGVEYRTKTEEWFDIVDGRVKSVEIRVH” returned a protease stability score of 0.426.

The sequence “DERTEEVKRITEEFREAERTGDWERLLELIDPDVRIEIIINGRRETYHGREDAKRVLEEWYKQFKNITLKLREMRIQGDKTDLEVEVNVNGRRHDIRVHLHIVNGRIKEIRIEVI” came in with a protease stability score of 1.63.

“DERTEFLERMSEHLTHVWHTGNEELWNRLADPRARFIEFVDGKKNHHHGMEVASNRIKKWRKDLGIDHVRLKEERVQGNKVELHLQVDINGVEQTVEIYNSIVDGRFESLEVNIHTR” registered a protease stability score of 0.074.

In the case of “DERTEHFREYREKVLESIETGDPRVIKEMLDPNAKVEIVIGEKNFDLHGREEVMRWYEEWVEKYKGMRIHINHVEVQGEKIIVDSELEVNGKSHKTDLIITAFNGVIKETRVEIN”, the protease stability score is 1.06.

In the case of “DERTEHNRQLAEEITRALLTGDWHEIEKQADPHVKFRQGEFSYVGREDLVRFWEEFIKKIKNITLRIREIRVIGDKVHIHNDLKIGDKETHVHIILVLIDGRLHHLEIRIE”, the protease stability score amounted to 1.45.

Turning to “DERTEHSEENVKLFIEALRTGDFKTLLRLVDPHVRVIVIINGKEINNHGWEEFLRWMREEFERYPNLRVKVRHLDIQGDFVRVEGHLEVGDKSHRIHLHLLIINGVVELELYIFR”, the protease stability score was 1.92.

Consider “DERTELTRNFFEEMVDTMITGNEHLEHRLADPNVRIYVGEKRIHGMERYIHQHHQWRFKDFKLKDIDTQGDKATIDGHLEGEVNGKDTRTDVEVHTLKFNGRWLIHTLRIR”, for which the protease stability score was 1.1.

For “DERTEVSEEFHRILIKVWRTGDETLSHQLADPHAKAEIGDKTIHGRDLWKEVFRRESERYDHYDSRLKDVKVQGDYINLDVHLILHVDGVPVRTDVIEIVLKFNGRWRLHSFHVK”, the protease stability score was found to be 0.684.

Regarding “DERTEYFIREAREMLRDWVTGDWKRLHELMDPNARQDVNGVKNVGRDELSEFFEKFRERFDVYELRITEERHQGNKFIVKGDFHSNQGEFTFHHELEVHIVVVNGQFKRIEMRIR”, the protease stability score turned out to be 1.55.

Sequence “DERTHHLEQLYRRMYEHWETGDEKFHRELLDPHARVDINGQDVHGMHWIEEEMRMQREHIRIEHVIIKSIEIVDGKIHMNGIILGDINGRRVNVEVRFHVIIINGKARLVEVKIL” had a protease stability score of 0.025.

The sequence “DERTKEDEKWAKLFLEWHKTGNEEAFSHFADPHTRNTINGVELIGRESLMEFSKRWIEELRFKQLHIRDFKVVNGRVHIDSELHGIINGQEISTTVKIHIDIINGQTKSVEVRIL” gave a protease stability score of 1.17.

Turning to “DERTKQFNELLHIFIRDLHTGDEESHERMMDPNVRTEVGEFRMHGRENVRHWWHEWLRLLGLDRIEVRVRDHHVIDGRLRIDVELKQGDKNIDTHVILVVINGRMHSQRYEFH”, the protease stability score stood at 0.717.

For the sequence “DERTKSYELALRIIEHVNKTGDEEMSTHMADPNARVVQGEKEIHGRELFIRWMKEIRVEDIKHRDKTIIGDKLILRVDIHGIIDGRHEDFHVILIVTKVNGRWHLEEVRIH”, the protease stability score is 1.36.

As to “DERTLEQLLQDFINNMQTGDHQSLKDLLDENARVNIGDKTLSGRERVTTALKRLMRRVDHIQVDHYEVTNGEMNIDMQLEVNGVRVKVEVIIEVHNGKAKFIEFRVRNEEQWERVEG”, the protease stability score was 2.19.

“DESAVNNLVRLAKAWLRGDPKKIEHLVDKDAKAQIGDKTLHGREDLKDHADELRKDMTVDVKSVTNNNQNGQAVVDVKFEADRNGRPETHTLDAKATAHNGDIVDVKIHQDG”: the protease stability score was -0.049.

“DESDKEREDVFRSWIESMRTGDEKNMRELMDPHARTEIGDKEYHGREVVEYIRREWRITHVELHRIEKQGDKIISHGHDEINIDGRKLYIHSRIIARKVNGVWIIESLEFH” registered a protease stability score of 1.29.

For the sequence “DESDKYVHHVAELMIEWFLTGDEELFEEYADPNMRVIFENHENHGREEVMKHMHDWWRKVKNVRVEYRIRDVQFQGDKARIEGELIIRIDGRNVIREVEYHILVIDGVLHSYKLVYK”, the protease stability score is 1.47.

Turning to “DESDTLAKEATREFEEFMRTGDEHSLLKLADPHVRLFWNGKQLVGREDYSKHIKFLLEHFGFDNIESRTEHIDWQGDKLRLHLRMHVNGKTITVEIHSEKINGRWMNREIHFT”, the protease stability score amounted to 1.44.

Sequence “DESEDAVRKSMELWEESMRTGNEERLIELVDPNVRLDINGQIYHGWSQFVEVIFNEFRHARLESIEIHEVRLQGDKIRSRTTLVIRINGRLKHLDVRFIVKKVDGRWQIHSEERE” yielded a protease stability score of 1.31.

“DESEEDVEYFVKILDRAWATGDEDTLRRLLDPHYRVHVDGKDIIGREEVVRLFKEMGWELRFHRDHIHVQGDKMFIHGTLRLIYNGRIEEREIHLDVNKINGRWLNERVEIR” yielded a protease stability score of 1.81.

Turning to “DESEEEMKKAFKDLVDSLLTGDEHLLRTFADPNMRLRIGDKTFHGRETYSEIFLKEWKKLGIKHYQVTIHHLEVQGDKIHVDTRVNVHIGDWTIHRETRLHITKVNGQWILRQEDVD”, the protease stability score worked out at 0.416.

In turn, “DESEEESHKVAELVIKIWETGDEHIWENLADPHTRYEIDGKIIHGREIASHIMRIFLERVKNVTFRIKDVKRHVYNGVIEVRNETELNIGDKRIDTHIMVILRKVNGRWYMTEVRFQID” returned a protease stability score of 1.53.

On to “DESEEHSEIMLRILHHALRTGDEEEITRLLDPHVRVIIGDKHYHGWEDYVKTVFTTAKEMRMHIHITDSKVQGNYVHLDTRLLIHYNGKTFTYNTRLVTVKVNGQWRLHSETSH”, for which the protease stability score was 1.

“DESEEKAREFLEILVRDVRTGDEESAVRLLDPNVRIEQGDKELHGWEVYIHWAKHIRMRSVHLRTMEVQGDKVILRGDERQEIDGVESVRDVIVYVRKINGRWVMTSIEVL” showed a protease stability score of 2.15.
